Results: IntAct's records for PubMed 11733528

B1: Early protein (Human adenovirus C serotype 5 (HAdV-5)), P03255-2 (parent)
chain: MRHIICHGGVITEEMAASLLDQLIEEVLADNLPPPSHFEPPTLHELYDLDVTAPEDPNEEAVSQIFPDSVMLAVQEGIDLLTFPPAPGSPEPPHLSRQPEQPEQRALGPVSMPNLVPEVIDLTCHEAGFPPSDDEDEEGPVSEPEPEPEPEPEPARPTRRPKMAPAILRRPTSPVSRECNSSTDSCDSGPSNTPPEIHPVVPLCPIKPVAVRVGGRRQAVECIEDLLNEPGQPLDLSCKRPRP
partner: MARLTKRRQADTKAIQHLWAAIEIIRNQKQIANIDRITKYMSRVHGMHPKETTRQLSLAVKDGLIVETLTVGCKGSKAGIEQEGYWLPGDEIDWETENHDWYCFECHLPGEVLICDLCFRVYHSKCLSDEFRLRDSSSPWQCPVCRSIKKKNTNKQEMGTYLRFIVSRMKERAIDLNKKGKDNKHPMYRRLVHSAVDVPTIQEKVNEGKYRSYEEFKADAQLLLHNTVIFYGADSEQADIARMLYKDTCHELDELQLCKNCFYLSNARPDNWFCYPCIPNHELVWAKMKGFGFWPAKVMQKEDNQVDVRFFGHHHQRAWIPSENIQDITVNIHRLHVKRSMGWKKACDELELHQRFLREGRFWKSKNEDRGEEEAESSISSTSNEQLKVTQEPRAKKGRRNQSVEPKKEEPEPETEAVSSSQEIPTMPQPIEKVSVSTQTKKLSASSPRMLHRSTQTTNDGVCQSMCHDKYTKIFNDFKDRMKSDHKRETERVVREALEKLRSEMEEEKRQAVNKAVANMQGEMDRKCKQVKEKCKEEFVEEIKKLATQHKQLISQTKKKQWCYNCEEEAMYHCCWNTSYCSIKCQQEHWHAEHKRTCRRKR

Variants of: B1
Conditions: with zmy11_human ZMYND11, Q15326

Which “effect of a mutation on the interaction” value does the source give for L115A here?
The value was “disrupting interaction”.
